For this assay, the target named is T1, GST-UAP56 (UniProt Q13838 1-428).
T1 construct: UAP56
Nature of the assay: pull-down; GST fusion proteins with purified UIF in the presence of RNase; Coomassie staining. As to conditions: both partners purified.

T1 sequence (Q13838 whole entry): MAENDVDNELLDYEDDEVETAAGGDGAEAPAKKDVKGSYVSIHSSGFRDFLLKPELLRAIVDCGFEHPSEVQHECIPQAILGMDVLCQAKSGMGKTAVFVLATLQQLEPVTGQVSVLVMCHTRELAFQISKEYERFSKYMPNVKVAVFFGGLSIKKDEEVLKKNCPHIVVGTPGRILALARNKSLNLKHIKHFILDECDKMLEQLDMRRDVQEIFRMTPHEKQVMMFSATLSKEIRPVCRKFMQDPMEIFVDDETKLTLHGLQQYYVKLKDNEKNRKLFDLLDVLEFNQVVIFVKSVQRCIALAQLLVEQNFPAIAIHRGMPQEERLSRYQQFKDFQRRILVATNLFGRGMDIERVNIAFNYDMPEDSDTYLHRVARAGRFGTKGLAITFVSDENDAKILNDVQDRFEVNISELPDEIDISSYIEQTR

B1: purified UIF (recombinant) (natural protein, human, UniProt Q96QD9 1-318, looked up)
chain: MNRFGTRLVGATATSSPPPKARSNENLDKIDMSLDDIIKLNRKEGKKQNFPRLNRRLLQQSGAQQFRMRVRWGIQQNSGFGKTSLNRRGRVMPGKRRPNGVITGLAARKTTGIRKGISPMNRPPLSDKNIEQYFPVLKRKANLLRQNEGQRKPVAVLKRPSQLSRKNNIPANFTRSGNKLNHQKDTRQATFLFRRGLKVQAQLNTEQLLDDVVAKRTRQWRTSTTNGGILTVSIDNPGAVQCPVTQKPRLTRTAVPSFLTKREQSDVKKVPKGVPLQFDINSVGKQTGMTLNERFGILKEQRATLTYNKGGSRFVTVG
notes: it may be the GB1-6His-UIF of m18; also called recombinant UIF
Consider B1, for which the binding result is “binds”.

The record behind these values is paper PMC2828547, “UIF, a New mRNA Export Adaptor that Works Together with REF/ALY, Requires FACT for Recruitment to mRNA” (Current Biology, 2009).
